From PMC3014985
Read-outs that look alike come from different tables or passages of the source.

Tests used:
Test in all cases: SEC
[1] = biological target: 6His-TOSV NP (Toscana virus nucleoprotein with N-terminal hexahistidine tag), refolded (Toscana virus (strain AR2005)) (UniProt P21701)
[2] = biological target: RVFV NP (Rift Valley fever virus nucleoprotein after removal of the TRX-6His tag) (Rift Valley fever virus (strain Smithburn)) (UniProt P21700)
[3] = biological target: TOSV NP (Toscana virus nucleoprotein after removal of the TRX-6His tag) (Toscana virus (strain AR2005)) (UniProt P21701)
[4] = biological target: TOSV NP (Toscana virus nucleoprotein after removal of the TRX-6His tag) (Toscana virus (strain AR2005)) (UniProt P21701); remark: listed apart in the source

“6His-TOSV NP (Toscana virus nucleoprotein with N-terminal hexahistidine tag), refolded (from UniProt P21701 1-253) (natural protein)” gave a stoichiometry N [1] of 3.

“RVFV NP (Rift Valley fever virus nucleoprotein after removal of the TRX-6His tag) (from UniProt P21700 1-245) (natural protein)” showed a stoichiometry N [2] of 3.

Work on “TOSV NP (Toscana virus nucleoprotein after removal of the TRX-6His tag) (from UniProt P21701 1-253) (natural protein)” yielded a stoichiometry N [3] of 6 and a stoichiometry N [4] of 3.
